The nanobody polyreactivity screen of Harvey et al. (2022)

experiment: yeast display, Sf9 membrane polyspecificity reagent, FACS + sequencing; frameworks hold sequencing errors
Summary of the method: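 A nanobody's polyreactivity label depends on the gate it was sorted from. Yeast display cells were stained with 10% biotinylated, detergent-solubilized Sf9 membrane reagent for 1 hour at 4 °C, enriched on streptavidin microbeads and sorted by FACS. The low and high (top ~1%) gates were set on anti-HA fluorescence for expression and streptavidin fluorescence for reagent binding.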

| Sequence | polyreactivity (PSR sort gate) |
| --- | --- |
| QVQLVESGGGIVQAGGSLRLSCAASGYIFQYYAMGWYRQAPGKERELVAAITGGGSTKYADSVKGRFTISRDNAKNTVYLQMNSLKPEDTAVYYCAASLWYRISKYDYWGQGTQVTVSS | high polyreactivity |
| QVQLVESGGGIVQAGGSLRLSCAASGYTFRGNVMGWYRQAPGKERELVAAISRSGGSTYYADSVKGRFTISRDNAKNTVYLQMYCLKPADTAVHYCAKKPTSTYQQDSPRWSDYWGQGTQVTVSS | high polyreactivity |
| QVQLVESGGGIVQAGGSLRLSCAATGRTFGYNAMGWYRQAPGKERELVAAIRTIGDSTYYADSVKGRFTISRDNAKNTVYLQMNSLKPEDTAVYYCAARKLRSRYDYWGQGTQVTVSS | high polyreactivity |
| QVQLVESGGGIVQAGGSLRLSCAGSGRTFLWNAMGWYRQAPGKERELVARINLSGGRTYYADSVKGRFTISRDNAKKTVNLQMNSLKPEDTAFYYCAATVVRYRRDSWGQGTQVTVSS | low polyreactivity |
| QVQLVESGGGIVQAGGSLRLSCPASGSIFDTYAMGWYRPAPGKEREMVASWSGGSTYYADSVKGRFTISRDNAKNTVYLQMISLKPEDTAVDYCAKDYYVQPPGTRDDYWGQGSQVTVSS | low polyreactivity |
| QVQLVESGGGIVQAGGSLRLSFAASGSIFEINALGWYRQAPGKERELVAAITGSGGSTHYADSVKGRFTISRDTAKNTVYLQMNSLKPEDTAVYYCARTQRYDYGYDYWGQGTQVTVSS | low polyreactivity |
| QVQLVESGGGIVQAGGSLRLSIAASGNILNGNVMGWSRPEPGKERELVAAITSGGDTYYADSVKGRFTISRDNAKNTVYFQMNSLKPEDTAVYYCAADRPGQPKYEYWGQGTQVTVSS | low polyreactivity |
| QVQLVESGGGIVQAGGSLRLSSAASGFIFRYYAMGWYRQARGNEREWVAAISSGGRTSYADSVKGRFTISRDNAKNTVYLQMNSLTPEDTAVYYCAADRWRCLFYYGNDYWGQGTQVTVSS | high polyreactivity |
| QVQLVESGGGIVQAGGSLRLSSAASGNKFSLNGMGWYRQAPGKEREFVAAITWSVGSRYYADSVKGRLTISRDNAKHTVYLPMNILKPEDTAVYYCAATVSDLYKIEYYYWGQGTQVSVSS | low polyreactivity |
| QVQLVESGGGIVQAGGSLRLSWAASGRNFLDYTMGWYRQAHGKERELVAAIRTSAGSTYYADSVKGRFTISRDNAKNTVYLQMNILKPEYTAVYYCAAEYYVQYYYRYDYWGQGTQVTVSS | low polyreactivity |
| QVQLVESGGGIVQAGGSLSLSCAASGRSFRYYAMGWYRQAPGKEREMVAAIDTSSGSTYYADSVKGRFTISRDNAMNTVFLQMNSLKPEDTAVYYCNATWWIPLIYDYWGQGTHVTVSS | low polyreactivity |
| QVQLVESGGGIVQAGRSLRLRCAASGSTFTPYGMGWYRQAPGKESELVAAITVSGGRTYYADSVKGRFTISRDNANNTVSLVMNSLKPEDTAVYYCAAVYLRADGDYDYWGQGTQVNVSS | low polyreactivity |
| QVQLVESGGGIVQAGVSLRLSCAASGINIDYYAMGWYRQAPGKERELVAAITSGGSTSYADSVKGRFTISRDNAKNTVYLQMNSLKAEDTAVYYCNTEPSGYESGYWGQGTQVTVSS | low polyreactivity |
| QVQLVESGGGIVQEGGSLRLSCAASGSTFDQNGMGGYRQAPGKERELVATISTSAGTYYADSVKGRFTISRDNAKNTVYLQMNSLKPEDTAVYYCNADLGGQYKEFDYWGQGTQVTVSS | low polyreactivity |
| QVQLVESGGGIVQSGGSLRLSCAASGRTFSSYAMGRYRQAPGKEMALVAAINRGGGSTYYADSVKGRFTISRDNAKNTVYLQMNSLKPEDTAVYYCNARSKLTYEYDYWGQGTQVTVSS | high polyreactivity |
| QVQLVESGGGKLQAGGSLRLSCAASGIILYVYAMGWYRQAPGKARELVAAITWSGGSTYYADSEKGRFTISRDNAKNTVYLQMNSLKPEDTAVYYCAVDVHTSADASLPQEYDYWGPGTQVTVSS | low polyreactivity |
| QVQLVESGGGKVQAGGSLRLSCAASGRIFYLNAMGWYRQAPGKEREFVAAITRNGGNTYYADSVKGRFTISRDNAKNTVYLQMNSLKPEDTAVYYCNAKYWPFSRWYYYWGQGTQVTVSS | high polyreactivity |
| QVQLVESGGGLDPAGGSLRLSCAASGITFSYYAMGWYRQAPGKERELVAAISSSGSTYYADSVKGRFTISRDNAKNTDYLQMNSLKPEDTAVYYCAAEIRYYEYDYWGQGTQVTVSS | low polyreactivity |
| QVQLVESGGGLDQAAGSLRLSCAASGSNFQWYTMGWYRQAPGKERELVAAITWSGASTYYADSVKGRFTISRDNAKNTVYLQMNSLKPEDTAVYYCAADWRRGTGFYYWGQGTQVTVSS | high polyreactivity |
| QVQLVESGGGLDQAGCSLRISCAASGRIFIQNTMGWYRQAPGKERELVAAITRSGGRTYYADSVKGRFTFSRDNAKNTVYLQMNSLKPEDTAVYYCNRRPATRAYLYDYWGQGTQVTVSS | high polyreactivity |

| Sequence | polyreactivity (PSR sort gate) |
| --- | --- |
| QVQLVESGGGLDQAGGCLRLSSAASGIIFYYNRMGCDRQAPGKERDLVADISGDGSTNYADSVKGRFTISRDNAKNTLYLQINSLKPDDTAFYYCNSDDIFRPRDDLYDYWGQGTQVTVSS | low polyreactivity |
| QVQLVESGGGLDQAGGRLRLSCAASGFTIRDNAMGWYRQAPGKEMELVAAISRSGDSTNYADSVKGRFTISRDNAKNTVYLQMNSLKPEDTAVYYSAAKRRYTTYDYWGQGTLVTVSS | high polyreactivity |
| QVQLVESGGGLDQAGGSLRLICAASGRIFVYYTMVWYRQAPGKERELVAAITGSGGSTYYADSVKGRFTISRDNAKNTVYLQMNSLKPEDTAVYYCAVYDSYRSRTHRYPATFAYGSWGQGNQVTVSS | high polyreactivity |
| QVQLVESGGGLDQAGGSLRLSCAASASIFQRSAKCWYRQAPGKETELVAAITNGGGSTYYADSVKGRFTISRDNAMNTVYLQMNSLKPEDTAVYYCAKDGHSYYPWEYDYWVQGTQVTVSS | low polyreactivity |
| QVQLVESGGGLDQAGGSLRLSCAASGFIFVRNAMGWYRQAPGKERELVAAITGRGGRTYYADSVKGRFTISRDNAKNTVYLQMNSLKPEDTAVYYCAKDSPDDHFGYWGQGTQVTVSS | high polyreactivity |
| QVQLVESGGGLDQAGGSLRLSCAASGFTFARYTMGWYRQAPGKEREFVAAISWSGGRTYYADSVKGRFTISRDNAKNTVYLQMNSLKPEDTAVYYCAARRKTTKYDYWGQGTQVTVSS | high polyreactivity |
| QVQLVESGGGLDQAGGSLRLSCAASGFTSGYNVLGWYRQAPGTARELVAAISWRGTSTYYADSVKGRFTISRDNAKNTVYLQMNSLKPEDTAVYYCAARQRWYWRGYDYWGQGTQVTVSS | high polyreactivity |
| QVQLVESGGGLDQAGGSLRLSCAASGGIFYHNAMGWYRQAPGKERELVAVISWSRTRTYYADSVKGRFTISRDNAKNTVYLQMNILTPDDTAVYYCAASPDPYWVRMDYWGQGTQVNVSS | high polyreactivity |
| QVQLVESGGGLDQAGGSLRLSCAASGGTFSNYAMGWYRQATGKERELVAAISESGGSTYYADSVKGRFTISRDNAKNTVYLQMNSLKPEDTAVYYCAVGTRFYVPRRFDYWGQGSQVTVSS | high polyreactivity |
| QVQLVESGGGLDQAGGSLRLSCAASGIIFRNYAMGWYRQAPGKERELVATITGDGGSTYYADSVKGRFTISRDNAKNTVYLQMNSLKPEDTAVYYCNADVSKRGWTTYWYGYGYYYWGQGTQVTVSS | low polyreactivity |
| QVQLVESGGGLDQAGGSLRLSCAASGIIFVKYTMGWYRQAPGTERELVAAISRSGGSTYYADSVKGRFTISRDNAKNTVYLQMNSLKPEDTAVYYCNAVSRKVYPGPMDYWGQGTQVTVSS | high polyreactivity |
| QVQLVESGGGLDQAGGSLRLSCAASGIIFWYNARGWYRQAPGKERELVAAINYGGSTNYADSVKGRFTISRDNAKNTVYLQMNSLKQEDTAVDYCNADRSVIHRGYIWQPGRNDYWGQGTQVNVSS | low polyreactivity |
| QVQLVESGGGLDQAGGSLRLSCAASGITFDYYAIGWYRQAPGKERELVAAISRAGSTNYADSVKGRFTISRDNAKNTVYLQMNSLKPEDTAVYYCNNGYHSWSRLSQFGWSYDYWGQGTQVTVSS | high polyreactivity |
| QVQLVESGGGLDQAGGSLRLSCAASGITFGFNAMGWYRQAPGIERELVAAITYRGGSTYYADSVKGRFTISGDNAKNTVYLQMNSLKPEDTAVYYCAADIGRHTDNYDPRYDYWGQGTQVTVSS | low polyreactivity |
| QVQLVESGGGLDQAGGSLRLSCAASGITFTSYAMGWYRQAPGTEREFVAAISWTDTSTYYADSVKGRFTISRDNAKNTVYLQMNSLKPEDTAVYYCADEYEVGYFGYEYWGQGTQVTVSS | high polyreactivity |
| QVQLVESGGGLDQAGGSLRLSCAASGITIIGYAMGWYRQAHGKERELVASITSGANTNYADSVKGRFTISRANAKNTVYFQMNSLKPEATAVYYCAAPEHGTYANILGEPLDYWGQGSQVTVSS | low polyreactivity |
| QVQLVESGGGLDQAGGSLRLSCAASGLIFKLYDMGWSRQAPGKERELVATISRGTSTYYADSVKGRFTISRDNAKNTVDLQMNSLKPEDTAVYYCNARLDYGRAFPLFKYISGMYYWGQGTQVTVSS | low polyreactivity |
| QVQLVESGGGLDQAGGSLRLSCAASGLIFQVYAMGWYRQAPGKERELVAAISRSGGRTYNADSVKGRFTISRDNAKNTVYLQMNSLKPEDTAVYYCAAESYVDYPRWYDYWGQGTQVTVSS | high polyreactivity |
| QVQLVESGGGLDQAGGSLRLSCAASGNIFPAYAMGWYRQAPGKERELVAAISKSGGRTYYADSVKGRFTISRDNAKKTVYLVMNSLKPEDSAVYFCAARDRRYQWTSWYDYWGQGTQVTVSS | high polyreactivity |
| QVQLVESGGGLDQAGGSLRLSCAASGNIFSDSTMGWYRQAPGKEIELVAAISGDGGTTYYADSVKGRFTISRDNAKHTVYLQMNSLKPEDTAVYFCAGDGYYDAYDQFFIVYYEYDYWGQGTQVTVSS | low polyreactivity |
